Measurements taken from article PMC8125230, “Crystal Structure of Escherichia coli Agmatinase: Catalytic Mechanism and Residues Relevant for Substrate Specificity” (International Journal of Molecular Sciences, 2021).

Molecular target: the molecule itself
Assay: crystal structure; sitting drop vapor diffusion at 18 °C; protein 12 mg/mL in 25 mM Tris-HCl pH 8.0, 2 mM MnCl2, 100 mM guanidine chloride; two crystal forms (7LOL at 1.8 Å, 7LOX at 3.2 Å); oligomeric state analysed with PISA

B1: Agmatinase from Escherichia coli (enzyme)
chain: MSTLGHQYDNSLVSNAFGFLRLPMNFQPYDSDADWVITGVPFDMATSGRAGGRHGPAAIRQVSTNLAWEHNRFPWNFDMRERLNVVDCGDLVYAFGDAREMSEKLQAHAEKLLAAGKRMLSFGGDHFVTLPLLRAHAKHFGKMALVHFDAHTDTYANGCEFDHGTMFYTAPKEGLIDPNHSVQIGIRTEFDKDNGFTVLDACQVNDRSVDDVIAQVKQIVGDMPVYLTFDIDCLDPAFAPGTGTPVIGGLTSDRAIKLVRGLKDLNIVGMDVVEVAPAYDQSEITALAAATLALEMLYIQAAKKGE
notes: Agmatinase (EcAGM), Escherichia coli; wild type; gene cloned into pQE60; residues 11 to 26 of the N-terminal end are modeled in the structure; The hexamer (dimer of trimers) is built by crystal symmetry: 7LOL has one chain and 7LOX three chains in the asymmetric unit; also called EcAGM; E. coli AGM; source: E. coli BL21(DE3), purified (HisTrap HP, S-200 size exclusion)
  stoichiometry N: 6
